Results as given in the nanobody polyreactivity screen of Harvey et al. (2022).

Test: yeast display, Sf9 membrane polyspecificity reagent, FACS + sequencing; frameworks hold sequencing errors
Procedure, shortened: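 Using colony PCR, genes from sorted yeast display clones were amplified, then sequenced on MiSeq at 2 × 250 and filtered by CDR length. The clones had been stained with 10% biotinylated, detergent-solubilized Sf9 membrane reagent for 1 hour at 4 °C and sorted by FACS into low and high (top ~1%) gates on anti-HA and streptavidin fluorescence. Polyreactivity labels come from the gate of origin.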

QVQLVESGGGLVQAGGSLRLSCAASGSTFYKNTMGWYRQAPGKERELVATISSGDSTYADSVKGRFTISRDNAKNTVYLQMNSLKPEDTAVYYCAAASDLPGTGGYDYWGPGTQVTVSS
polyreactivity (PSR sort gate): low polyreactivity

QVQLVESGGGLVQAGGSLRLSCAASGSTFYLNAMGSYRQAPGKERELVAAISSGGRTYYADSVKGRFPISRDNAKNTDYLQMNSLKPEDTAVYYCNAVRYLRGAYNYWGQGTQVTVSS
polyreactivity (PSR sort gate): high polyreactivity

QVQLVESGGGLVQAGGSLRLSCAASGSTFYLNAMGWYRQAPGKERELVAAISSGGNTNYADSVKGRFTISRDNAKNTVYLQMNSLKPEDTAVYYCAAVYLSWYGLGEYWGQGTQVTVSS
polyreactivity (PSR sort gate): low polyreactivity

QVQLVESGGGLVQAGGSLRLSCAASGSTFYLNAMGWYRQAPGKERELVAVITRSGGNTYYADSVKGRFTISRDNAKNTVYLQMNSLKPEDTAVYYCNKRPTGGKYEYWGQGTQVTVSS
polyreactivity (PSR sort gate): high polyreactivity

QVQLVESGGGLVQAGGSLRLSCAASGSTFYLNPMGWYRQAPGKERELVAVITSSGGSTNYADSVKGRFTISRDNAKITVYLQMNSLKPEDSAVYYCNRRPYPSYDYWGHGTQVTVSS
polyreactivity (PSR sort gate): low polyreactivity

QVQLVESGGGLVQAGGSLRLSCAASGSTFYLYAMGWYRQAPGKEREFVAAITYSAGSTYYADSVKGRFTISRDNAKNTVYLQMNSLKPEDTAVYYCAARHYAVRRSRYPGKLGYYWGQGTQVTVSS
polyreactivity (PSR sort gate): high polyreactivity

QVQLVESGGGLVQAGGSLRLSCAASGSTFYLYAMGWYRQAPGKERELVAAIRGGGITNYADSVKGRFTISRDNAKNTVYLQINSLKPEDTAVYYCAADSTLRGFDYWGQGTQVTVSS
polyreactivity (PSR sort gate): high polyreactivity

QVQLVESGGGLVQAGGSLRLSCAASGSTFYLYAMGWYRQAPGKERELVAAISWSGDSTYYADSVKGRFTISRDNAKNTVYLQMNSLKPEDTAVYYCAAEFYWGDLSYWGQGTQVTVSS
polyreactivity (PSR sort gate): high polyreactivity

QVQLVESGGGLVQAGGSLRLSCAASGSTFYLYAMGWYRQAPGKERELVARISSSGGRTYYADSVKGRFTISRDNAKNTVYLQMNSLKPEDTAVYYCAASSFTSSYNYWGQGTQVTVSS
polyreactivity (PSR sort gate): high polyreactivity

QVQLVESGGGLVQAGGSLRLSCAASGSTFYLYVMGWYRQAPGKERELVAAIRRSGTRTYYADSVKGRFTISRDNAKNTVYLQMNSLKPEDTAVYYCAARYSRPSKAYGYWGQGTQVTVSS
polyreactivity (PSR sort gate): high polyreactivity

QVQLVESGGGLVQAGGSLRLSCAASGSTFYNYAMGWYRQAPGKERELVAAISSSGGRTYYADSVKGRFTISRDNAKNTVYLQMNSLKPEDTAVYYCAASGRKNGMNYWGQGTQVTVSS
polyreactivity (PSR sort gate): high polyreactivity

QVQLVESGGGLVQAGGSLRLSCAASGSTFYNYAMGWYRQAPGKERELVAAITSSGDRTYYADSVKGRFTISRDNAKNTVYLQMNSLKPEDTAVYYCATRRYFRYEYWGQGTQVTVSS
polyreactivity (PSR sort gate): low polyreactivity

QVQLVESGGGLVQAGGSLRLSCAASGSTFYPYAMGWYIQAPGKERELVARISSDGSTYADSVKGRFTISRDNAKNTVYLQMNSLKPEDTAVYYCNADAGTGVGWWDDYDYWGQGTQVTVSS
polyreactivity (PSR sort gate): low polyreactivity

QVQLVESGGGLVQAGGSLRLSCAASGSTFYPYAMGWYRQAPGKERELVAAISSGGSTNYADSVKGRFTISRDNAKYTVYLQMNSLKPEDTAVYYCAAASGSRRHGYWGQGTQVTVSS
polyreactivity (PSR sort gate): high polyreactivity

QVQLVESGGGLVQAGGSLRLSCAASGSTFYPYAMGWYRQAPGKERELVAAISSGGSTSYADSVKGRFTISRDNAKNTVYLQMNSLKPEDTEVYYCNASSPGAVPVYDYDYWGQGTQVTVSS
polyreactivity (PSR sort gate): low polyreactivity

QVQLVESGGGLVQAGGSLRLSCAASGSTFYPYAMGWYRQAPGKERELVAAISYSGGSTYYADSVKGRFTISRDNAKNTVYLQMNSLKPEDTAVYYCAAYYRVYGASYDYWGQGTQVTVSS
polyreactivity (PSR sort gate): high polyreactivity

QVQLVESGGGLVQAGGSLRLSCAASGSTFYPYAMGWYRQAPGKERELVAAITVSGGSTYYADSVKGRFTISRDNAKNTVYLQMNSLKPEDTAVYYCAVDGDPVFYTTYYYSYYYWGQGTQVTVSS
polyreactivity (PSR sort gate): low polyreactivity

QVQLVESGGGLVQAGGSLRLSCAASGSTFYPYAMGWYRQAPGKERELVAAITYRGGSTYYADSVKGRFTISRDNAKNTVYLQMNSLKPEDTAVYYCAADIGRHTDNYDPRYDYWGQGTQVTVSS
polyreactivity (PSR sort gate): low polyreactivity

QVQLVESGGGLVQAGGSLRLSCAASGSTFYPYAMGWYRQATGKERELVAAISSGGSTSYADSVKGRFTISRDNAKNTVYLQMNSLKPEDTAVYFCNASSPGAVPVYDYDYWGQGTQVTVSS
polyreactivity (PSR sort gate): low polyreactivity

QVQLVESGGGLVQAGGSLRLSCAASGSTFYPYSMGWYRQAPGKERELSTYADSVKGRFTISRDNAKNSVYLQMNSLKPEDTAVYYCAALHWRWYDYWGQGTQVTVSS
polyreactivity (PSR sort gate): low polyreactivity

QVQLVESGGGLVQAGGSLRLSCAASGSTFYPYVMGWYRQAPGKEREFVAAISKSGGSTYYADSVKGRFTISRDNAKNTVYLQMNSLKPEDTAVYYCNKKVASYYRSYYYWGQGTQVTVSS
polyreactivity (PSR sort gate): high polyreactivity

QVQLVESGGGLVQAGGSLRLSCAASGSTFYQYSMGLYRQAHVKEREFVAAITTIGGLTFYADSVKGRFTISRDNAKNTVYLQMHSLKPEDTAVYYCAAGYRAWDPYGHYGYWGQGTQVTVSS
polyreactivity (PSR sort gate): high polyreactivity

QVQLVESGGGLVQAGGSLRLSCAASGSTFYRNAMGWYRQAPGKERELVAAISTRGSSTYYADSVKGRFTISRDNAKNTVYLQMNSLKPEDTAVYYCTADGIYPVLKFDYDYWGQGTQVTVSS
polyreactivity (PSR sort gate): low polyreactivity

QVQLVESGGGLVQAGGSLRLSCAASGSTFYRNAMGWYRQAPGKERELVAAITSRGTRTFYADSVKGRFTISRDNAKNTVYLQMNSLKPEDTAVYYCAVTYQAEYEYDYWGQGTQVTVSS
polyreactivity (PSR sort gate): low polyreactivity

QVQLVESGGGLVQAGGSLRLSCAASGSTFYRNAMGWYRQAPGKERELVAGISRRGGSTYYADSVKGRFTISRDNAKNSVYLQMNSLKPEDTAVYYCAADVRSGGVAYGYGYWGQGTQVTVSS
polyreactivity (PSR sort gate): high polyreactivity

QVQLVESGGGLVQAGGSLRLSCAASGSTFYRYAMGWYRQAPGKERELVAAITSAGSTNYADSVKGRFTISRDNAKNTVYLQMNSLKPEDTAVYYCAADHGRPYFSYDYWGQGTQVTVSS
polyreactivity (PSR sort gate): low polyreactivity

QVQLVESGGGLVQAGGSLRLSCAASGSTFYRYAMGWYRQAPGKERELVAAITWSGGSTYYADSVKGRFTISRDNAKNTVYLQMNSLKPEDTAVYYCNAVARYYYKDQTIIHSPREDYWGQGTQVTVSS
polyreactivity (PSR sort gate): low polyreactivity

QVQLVESGGGLVQAGGSLRLSCAASGSTFYRYTMGWYRQAPGKERELVAAITRSSGSTYYADSVKGRFTISRDNEKNTVYLQMNCLKPEDTAVYYCAAYVGGDRGFDYWGQGTQVTVSS
polyreactivity (PSR sort gate): high polyreactivity

QVQLVESGGGLVQAGGSLRLSCAASGSTFYSNAMGWYRQAPGKERELVASISWSSGSTYYADSVKGRFTISRDNAKNTVYLQMNSLKPEDTAVYYCATDAGGPYRFGYWGQGTQVTVSS
polyreactivity (PSR sort gate): low polyreactivity

QVQLVESGGGLVQAGGSLRLSCAASGSTFYSNAMGWYRQAPGKERELVATISQRGGRTYYADSVKGRFTISRDNAKNTVYLQMNSLKPEDTAVYYCAKAATSWYGRYGYDYWGQGTQVTVSS
polyreactivity (PSR sort gate): low polyreactivity

QVQLVESGGGLVQAGGSLRLSCAASGSTFYSNVMGWYRQAPGKERELVAAISRSGGSTYYADSVKGRFTISRDNAKNTVYLQMNSLKPEDTAVYYCAARTYRRPYYSWGQGTQVTVSS
polyreactivity (PSR sort gate): high polyreactivity

QVQLVESGGGLVQAGGSLRLSCAASGSTFYSYAMGWYRQAPGKERELVAAISSSAGSTYYADSVKGRFTISRDNAKNTVYLQMNSLKPEDTAVYYCAAPKRYGVRYGYWGQGTQVTVSS
polyreactivity (PSR sort gate): high polyreactivity

QVQLVESGGGLVQAGGSLRLSCAASGSTFYSYAMGWYRQAPGKERELVAAISSSSGSTYYADSVKGRFTISRDNAKNTVYLQMNSLKPEDTAVYYCNRGRRYSHKYDYWGQGTQVTVSS
polyreactivity (PSR sort gate): high polyreactivity

QVQLVESGGGLVQAGGSLRLSCAASGSTFYSYAMGWYRQAPGKERELVADIDWSGGSTYYADSVKGRFTISRDNAKNTVYLQMNSLKPEDTAVYYCNAERGATGYYVTGDDYWGQGTQVTVSS
polyreactivity (PSR sort gate): low polyreactivity

QVQLVESGGGLVQAGGSLRLSCAASGSTFYSYTMGWYRQAPGKERELVAAISRSAGSTYYADSVKGRFTISRDHAKNTVYLQMNSLKPEVTAVYYCAATLGRTYYSRWYGMDYWGQGTQVTVSS
polyreactivity (PSR sort gate): high polyreactivity

QVQLVESGGGLVQAGGSLRLSCAASGSTFYTNAMGWYRPAPGKVRELVAAISSSGDSTYYADSVKGRFTISRDNAKNTVYLQMKSLKPDDTAVYYCNADLRSYNGFRYYYWGQGTKVTVSS
polyreactivity (PSR sort gate): low polyreactivity

QVQLVESGGGLVQAGGSLRLSCAASGSTFYTNAMGWYRQAPGKDRELVAVITSRGGGTYYADSVKGRFTISRDYAKNTVYLQMNRLKPEDTSVYYCAAYPLVSWGRHGTKGDYWGQGTQVTVSS
polyreactivity (PSR sort gate): low polyreactivity

QVQLVESGGGLVQAGGSLRLSCAASGSTFYTNAMGWYRQAPGKERELFAAIRQSGGTTHYADSVKGRFTISRDNAKNTVYLLMNSLKPEDTAVYYCAAVSGGYSRRYRYGYWGQGTQVTVSS
polyreactivity (PSR sort gate): high polyreactivity

QVQLVESGGGLVQAGGSLRLSCAASGSTFYTNAMGWYRQAPGKERELVAAITSSVGSTHYADSVKGRFTISRDNAKNTVYIQMNSLKPEDTAVYYCAATFGYGRYGYWGQGTQVTVSS
polyreactivity (PSR sort gate): low polyreactivity

QVQLVESGGGLVQAGGSLRLSCAASGSTFYTNAMGWYRQAPGKERELVAASNYSGGSTYYADSVKGRFTISRDNAKNTVYLQMNSLKPEDTAVYYCATDLHWLVTKYGYWGQGTQVTVSS
polyreactivity (PSR sort gate): low polyreactivity

QVQLVESGGGLVQAGGSLRLSCAASGSTFYTNAMGWYRQAPGKERELVAVITYRGGSTYYADSVKGRFTISRDNAKNTVYLQMNSLKPEDTAVYYCNARGTVPWYGYDYWGQGTQVTVSS
polyreactivity (PSR sort gate): high polyreactivity

QVQLVESGGGLVQAGGSLRLSCAASGSTFYTNDMGWYRQAPGKERELVAAITSAGNTNYADSVKGSFTISRDNAKNTVYLQMNSLKPEDTAVYYYYYYQYDYWGQGTQVTVSS
polyreactivity (PSR sort gate): low polyreactivity

QVQLVESGGGLVQAGGSLRLSCAASGSTFYTYAMGWYRQAPGKERELVAAINRSGGTTYYADSVKGRFTISRDNAKNTVYLQMNSLNPEDTAVYYCARRRYGYDYWGQGTQVTVSS
polyreactivity (PSR sort gate): high polyreactivity
